Drawing on US20240124586A1 (WUXI BIOLOGICS IRELAND, published 2024), this text covers EC50 and Kd for three molecules.

The target in assay [1] is T1, human PD-1 ECD mouse Fc fusion (W305-hPro1.ECD.mFc) (human, UniProt Q15116 25-170).
T1 construct: extracellular domain; In-house protein; also called hPD-1-ECD; human PD-1 coated on the plate
Nature of the assay: dual binding ELISA, PD-1 ECD.mFc coated, detection with biotinylated CTLA-4 ECD.hFc; first antibody named, first value; PD-1 coated, biotinylated CTLA-4 detection. As to the method: (§1) In order to test whether the bispecific antibodies could bind to both hPD-1 and hCTLA-4, an ELISA assay was developed as below. A 96-well ELISA plate (Nunc MaxiSorp, ThermoFisher) was coated overnight at 4° C. with 0.5 μg/ml antigen-1 (hPD-1-ECD, W305-hPro1.ECD.mFc) in carbonate-bicarbonate buffer. After a 1 hour blocking step with 2% (w/v) bovine serum albumin (Pierce) dissolved in PBS, serial dilutions of the different PD-1×CTLA-4 bispecific antibodies in PBS containing 2% BSA PBS were incubated on the plates for 1 hour at room temperature. Following the incubation, plates were washed three times with 300 μL per well of PBS containing 0.5% (v/v) Tween 20. […] After washing the plates three times, Streptavidin-HRP (Lifetechnologies, #SNN1004) (1:20000 diluted) was added and incubated on the plates for 1 hour at room temperature. After washing six times with […] per well of PBS containing 0.5% (v/v) Tween 20, 100 μL tetramethylbenzidine (TMB) substrate was added for the detection per well. The reaction was stopped after approximately 5 minutes through the addition of […] per well of 2 M HCl. The absorbance of the wells was measured at 450 nm with a multiwall plate reader (SpectraMax® M5e).
For orientation: ELISA stands for enzyme-linked immunosorbent assay.

Assay [2] has as its target T1, human PD-1 ECD mouse Fc fusion …. Put plainly: dual binding ELISA, PD-1 ECD.mFc coated, detection with biotinylated CTLA-4 ECD.hFc; second antibody named, second value; PD-1 coated, biotinylated CTLA-4 detection. As to the method: as §1
Assay [3] deals with T2, FcRn (UniProt P55899 24-297; P61769 21-119, limits assumed).
T2 construct: a molecular weight of 45 kDa was used
T2 sequence (P55899 24-297 limits assumed, chain 1 of 2): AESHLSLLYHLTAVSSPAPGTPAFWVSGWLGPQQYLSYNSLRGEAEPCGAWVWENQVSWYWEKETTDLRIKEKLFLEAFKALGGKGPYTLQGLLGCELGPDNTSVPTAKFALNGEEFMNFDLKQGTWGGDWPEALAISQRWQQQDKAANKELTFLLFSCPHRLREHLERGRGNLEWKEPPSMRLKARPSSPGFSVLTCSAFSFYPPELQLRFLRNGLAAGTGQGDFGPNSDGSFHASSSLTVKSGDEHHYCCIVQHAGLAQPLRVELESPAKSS
T2 sequence (P61769 21-119 limits assumed, chain 2 of 2): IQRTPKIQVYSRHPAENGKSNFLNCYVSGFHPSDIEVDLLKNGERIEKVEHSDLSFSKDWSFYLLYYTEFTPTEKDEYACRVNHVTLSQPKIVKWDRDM
Nature of the assay: SPR at pH 6.0, antibody immobilized, FcRn injected, steady state model; pH 6.0. As to the method:
Antibody binding affinity to FcRn was detected using Biacore T200 (or Biacore 8K). Each antibody was immobilized on CM5 sensor chip (GE). FcRn at different concentrations in running buffer (50 mM Na2HPO4/NaH2PO4, 150 mM NaCl, 0.05% Tween20, pH 6.0) were injected over the sensor chip at a flow rate of 30 uL/min for an association phase of 60 s, followed by 60 s dissociation. The chip was then regenerated by 1×PBS (pH 7.4) after each binding cycle.

Assay [4] addresses T3, human CD3 on CD3+ Jurkat cells (human, UniProt P07766 23-207; P09693 23-182; P04234 22-171).
T3 construct: whole, on cells; also called CD3 positive Jurkat cells
Put plainly: flow cytometry on Jurkat cells. Background: In flow cytometry, cells or beads pass a laser one at a time.

Assay [5] concerns the target T4, FcγRIIb (UniProt P31994 46-217, limits assumed).
T4 sequence (looked up): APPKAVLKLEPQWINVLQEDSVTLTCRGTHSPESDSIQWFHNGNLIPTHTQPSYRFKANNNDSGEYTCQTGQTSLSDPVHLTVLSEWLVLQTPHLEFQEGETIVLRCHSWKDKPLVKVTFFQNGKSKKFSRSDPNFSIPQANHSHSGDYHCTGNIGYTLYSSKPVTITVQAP
Nature of the assay: SPR (Biacore), receptor captured on anti-his chip, steady state model. Here is the method:
Antibody binding affinity to FcγRs was detected using Biacore T200 (or Biacore 8K). Each receptor was captured on an anti-his antibody immobilized CM5 sensor chip (GE). Antibodies at different concentrations were injected over the sensor chip at a flow rate of 30 uL/min for an association phase of 60 s, followed by 60 s dissociation. The chip was then regenerated by 10 mM glycine (pH 1.5) after each binding cycle.
The sensorgrams of blank surface and buffer channel were subtracted from the test sensorgrams. The experimental data was fitted by 1:1 model using Langmiur analysis (for FcγRI) or steady state model (for other receptors). A molecular weight of 150 KDa was used to calculate the molar concentration of antibodies.
Background: Surface plasmon resonance follows binding to a sensor surface in real time, without labels.

In general, EC50 refers to the concentration needed to bring the measured effect to its halfway point. Low readings indicate higher potency in that assay, high ones lower potency in that assay. What is called Kd is the equilibrium constant for the complex coming apart.

T1 sequence (Q15116 25-170): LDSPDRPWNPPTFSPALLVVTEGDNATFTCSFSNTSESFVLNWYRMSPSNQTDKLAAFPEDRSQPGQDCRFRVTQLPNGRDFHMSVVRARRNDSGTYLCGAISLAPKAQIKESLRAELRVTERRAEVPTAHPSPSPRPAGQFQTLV
T3 sequence (P07766 23-207, chain 1 of 3): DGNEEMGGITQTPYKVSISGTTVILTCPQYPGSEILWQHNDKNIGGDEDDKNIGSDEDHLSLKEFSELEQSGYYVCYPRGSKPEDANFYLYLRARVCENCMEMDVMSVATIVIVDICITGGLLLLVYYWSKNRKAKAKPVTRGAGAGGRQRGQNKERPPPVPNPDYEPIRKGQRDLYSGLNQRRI
T3 sequence (P09693 23-182, chain 2 of 3): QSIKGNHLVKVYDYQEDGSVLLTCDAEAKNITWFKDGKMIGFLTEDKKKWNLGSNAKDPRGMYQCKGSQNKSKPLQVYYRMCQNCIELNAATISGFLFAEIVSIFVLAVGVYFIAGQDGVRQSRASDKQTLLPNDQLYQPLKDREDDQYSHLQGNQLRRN
T3 sequence (P04234 22-171, chain 3 of 3): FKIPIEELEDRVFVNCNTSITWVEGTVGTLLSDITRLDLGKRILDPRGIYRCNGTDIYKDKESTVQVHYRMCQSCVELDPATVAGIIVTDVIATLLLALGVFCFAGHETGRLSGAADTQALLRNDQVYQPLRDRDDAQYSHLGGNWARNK

B1: W3248-U6T1.G25R-1.uIgG4.SP, bispecific anti-PD-1 x CTLA-4 (bispecific antibody)
heavy: EVQLLESGGGLVQPGGSLRLSCAASGFTFSSHAMSWVRQAPGKGLEWVSTITGGGGSIYYADSVKGRFTISRDNSKNTLYLQMNSLRAEDTAVYYCAKNRAGEGYFDYWGQGTLVTVSSASTKGPSVFPLAPCSRSTSESTAALGCLVKDYFPEPVTVSWNSGALTSGVHTFPAVLQSSGLYSLSSVVTVPSSSLGTKTYTCNVDHKPSNTKVDKRVGGGGSGGGGSQVQLVESGGGVVQPGRSLRLSCAASGFTFSSYTMHWVRQAPGKGLEWVTFISYDGNNKYYADSVKGRFTISRDNSKNTLYLQMNSLRAEDTAIYYCARTGWLGPFDYWGQGTLVTVLEDLKNVFPPEVAVFEPSEAEISHTQKATLVCLATGFYPDHVELSWWVNGKEVHSGVCTDPQPLKEQPALQDSRYALSSRLRVSATFWQNPRNHFRCQVQFYGLSENDEWTQDRAKPVTQIVSAEAWGRYGPPCPPCPAPEFLGGPSVFLFPPKPKDTLMISRTPEVTCVVVDVSQEDPEVQFNWYVDGVEVHNAKTKPREEQFNSTYRVVSVLTVLHQDWLNGKEYKCKVSNKGLPSSIEKTISKAKGQPREPQVYTLPPSQEEMTKNQVSLTCLVKGFYPSDIAVEWESNGQPENNYKTTPPVLDSDGSFFLYSRLTVDKSRWQEGNVFSCSVMHEALHNHYTQKSLSLSLG
light 1: SYELTQPLSVSVALGQTARITCGGDNIGNKDVHWYQQKPGQAPVLVIYRDSNRPSGIPEGFSGSNSGNTATLTISRAQAGDEADYYCQVWDSIWVFGGGTKLTVLGQPKAAPSVTLFPPSSEELQANKATLVCLISDFYPGAVTVAWKADSSPVKAGVETTTPSKQSNNKYAASSYLSLTPEQWKSHKSYSCQVTHEGSTVEKTVAPTECS
light 2: not shown
notes: IgG4 (S228P); also called U6T1.G25R.IgG4
In assay [1], B1 gave a concentration giving a half-maximal response (EC50) of 0.107 nM. This lies in the sub-nanomolar range.

B2: W3248-U6T5.G25-1.uIgG4.SP, bispecific anti-PD-1 x CTLA-4 (bispecific antibody)
heavy: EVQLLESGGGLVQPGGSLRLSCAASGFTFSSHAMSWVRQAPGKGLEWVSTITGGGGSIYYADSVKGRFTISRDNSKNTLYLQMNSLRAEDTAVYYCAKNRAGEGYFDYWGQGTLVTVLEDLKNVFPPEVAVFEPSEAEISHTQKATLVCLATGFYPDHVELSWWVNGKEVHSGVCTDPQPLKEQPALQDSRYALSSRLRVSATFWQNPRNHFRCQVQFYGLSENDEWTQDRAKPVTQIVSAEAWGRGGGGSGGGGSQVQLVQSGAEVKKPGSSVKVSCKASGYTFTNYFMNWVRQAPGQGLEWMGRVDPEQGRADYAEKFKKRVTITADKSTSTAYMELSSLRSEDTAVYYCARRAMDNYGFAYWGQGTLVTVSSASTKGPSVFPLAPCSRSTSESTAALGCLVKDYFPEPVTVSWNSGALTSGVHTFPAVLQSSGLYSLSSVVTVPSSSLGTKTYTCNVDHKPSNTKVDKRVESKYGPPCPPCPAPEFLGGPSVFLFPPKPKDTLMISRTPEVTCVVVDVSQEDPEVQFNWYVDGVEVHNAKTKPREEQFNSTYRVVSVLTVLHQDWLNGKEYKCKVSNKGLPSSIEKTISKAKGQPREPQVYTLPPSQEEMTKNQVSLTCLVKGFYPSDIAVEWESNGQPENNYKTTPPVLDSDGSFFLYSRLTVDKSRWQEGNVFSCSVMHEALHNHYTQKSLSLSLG
light 1: SYELTQPLSVSVALGQTARITCGGDNIGNKDVHWYQQKPGQAPVLVIYRDSNRPSGIPEGFSGSNSGNTATLTISRAQAGDEADYYCQVWDSIWVFGGGTKLTVLPDIQNPDPAVYQLRDSKSSDKSVCLFTDFDSQTQVSQSKDSDVYITDKCVLDMRSMDFKSNSAVAWSQKSDFACANAFQNSIIPEDTFFPSPESS
light 2: EIVLTQSPDFQSVTPKEKVTITCSANSALSYMYWYQQKPDQSPKLWVHGTSNLASGVPSRFSGSGSGTDFTLTINSLEAEDAATYYCHHWSNTQWTFGGGTKVEIKRTVAAPSVFIFPPSDEQLKSGTASVVCLLNNFYPREAKVQWKVDNALQSGNSQESVTEQDSKDSTYSLSSTLTLSKADYEKHKVYACEVTHQGLSSPVTKSFNRGEC
notes: IgG4 (S228P); also called WBP3248-U6T5.G25-1-uIgG4.SP; U6T5.G25.IgG4
In turn, B2 yielded an EC50 in assay [2] of 0.071 nM. That is a picomolar value.

B3: W3438-T3U4.E17-1.uIgG4.SP, bispecific anti-CD3 x CD19 (bispecific antibody)
heavy 1: QVQLVQSGAEVKKPGSSVKVSCKASGFAFTDYYIHWVRQAPGQGLEWMGWISPGNVNTKYNENFKGRVTITADKSTSTAYMELSSLRSEDTAVYYCARDGYSLYYFDYWGQGTLVTVLEDLKNVFPPEVAVFEPSEAEISHTQKATLVCLATGFYPDHVELSWWVNGKEVHSGVCTDPQPLKEQPALQDSRYALSSRLRVSATFWQNPRNHFRCQVQFYGLSENDEWTQDRAKPVTQIVSAEAWGRYGPPCPPCPAPEFLGGPSVFLFPPKPKDTLMISRTPEVTCVVVDVSQEDPEVQFNWYVDGVEVHNAKTKPREEQFNSTYRVVSVLTVLHQDWLNGKEYKCKVSNKGLPSSIEKTISKAKGQPREPQVYTLPPCQEEMTKNQVSLWCLVKGFYPSDIAVEWESNGQPENNYKTTPPVLDSDGSFFLYSRLTVDKSRWQEGNVFSCSVMHEALHNHYTQKSLSLSLGK
light 1: DIVMTQSPDSLAVSLGERATINCKSSQSLLNSRTRKNYLAWYQQKPGQPPKLLIYWASTRQSGVPDRFSGSGSGTDFTLTISSLQAEDVAVYYCTQSHTLRTFGGGTKVEIKPDIQNPDPAVYQLRDSKSSDKSVCLFTDFDSQTQVSQSKDSDVYITDKCVLDMRSMDFKSNSAVAWSQKSDFACANAFQNSIIPEDTFFPSPESS
heavy 2: QMQLVQSGPEVKKPGTSVKVSCKASGYAFTSYNMYWVRQARGQRLEWIGYIDPYNGDTTYNQKFKGRVTITRDMSTSTAYMELSSLRSEDTAVYYCLTTAYAMDYWGQGTLVTVSSASTKGPSVFPLAPCSRSTSESTAALGCLVKDYFPEPVTVSWNSGALTSGVHTFPAVLQSSGLYSLSSVVTVPSSSLGTKTYTCNVDHKPSNTKVDKRVESKYGPPCPPCPAPEFLGGPSVFLFPPKPKDTLMISRTPEVTCVVVDVSQEDPEVQFNWYVDGVEVHNAKTKPREEQFNSTYRVVSVLTVLHQDWLNGKEYKCKVSNKGLPSSIEKTISKAKGQPREPQVCTLPPSQEEMTKNQVSLSCAVKGFYPSDIAVEWESNGQPENNYKTTPPVLDSDGSFFLVSRLTVDKSRWQEGNVFSCSVMHEALHNHYTQKSLSLSLGK
light 2: DIQLTQSPSFLSASVGDRVTITCSASSTVNYMHWYQQKPGKAPKLLIYSTSNLASGVPSRFSGSGSGTEFTLTISSLQPEDFATYYCHQWSSYPYTFGQGTKLEIKRTVAAPSVFIFPPSDEQLKSGTASVVCLLNNFYPREAKVQWKVDNALQSGNSQESVTEQDSKDSTYSLSSTLTLSKADYEKHKVYACEVTHQGLSSPVTKSFNRGEC
notes: also called E17-Design_2-QQQQ (IgG4); E17-IgG4; copies: 1 + 1 + 1 + 1
As to B3, the Kd in assay [3] is 2580 nM; in assay [5], 24100 nM. In assay [4], this molecule returned an EC50 of 47 nM.
